Data published in US20240352434, “COMPOSITIONS COMPRISING A VARIANT CAS12I3 POLYPEPTIDE AND USES THEREOF” (Arbor Biotechnologies, Inc., published 2024).

T1: Cas12i3 K583R (Unidentified, K583R)
T1 chain: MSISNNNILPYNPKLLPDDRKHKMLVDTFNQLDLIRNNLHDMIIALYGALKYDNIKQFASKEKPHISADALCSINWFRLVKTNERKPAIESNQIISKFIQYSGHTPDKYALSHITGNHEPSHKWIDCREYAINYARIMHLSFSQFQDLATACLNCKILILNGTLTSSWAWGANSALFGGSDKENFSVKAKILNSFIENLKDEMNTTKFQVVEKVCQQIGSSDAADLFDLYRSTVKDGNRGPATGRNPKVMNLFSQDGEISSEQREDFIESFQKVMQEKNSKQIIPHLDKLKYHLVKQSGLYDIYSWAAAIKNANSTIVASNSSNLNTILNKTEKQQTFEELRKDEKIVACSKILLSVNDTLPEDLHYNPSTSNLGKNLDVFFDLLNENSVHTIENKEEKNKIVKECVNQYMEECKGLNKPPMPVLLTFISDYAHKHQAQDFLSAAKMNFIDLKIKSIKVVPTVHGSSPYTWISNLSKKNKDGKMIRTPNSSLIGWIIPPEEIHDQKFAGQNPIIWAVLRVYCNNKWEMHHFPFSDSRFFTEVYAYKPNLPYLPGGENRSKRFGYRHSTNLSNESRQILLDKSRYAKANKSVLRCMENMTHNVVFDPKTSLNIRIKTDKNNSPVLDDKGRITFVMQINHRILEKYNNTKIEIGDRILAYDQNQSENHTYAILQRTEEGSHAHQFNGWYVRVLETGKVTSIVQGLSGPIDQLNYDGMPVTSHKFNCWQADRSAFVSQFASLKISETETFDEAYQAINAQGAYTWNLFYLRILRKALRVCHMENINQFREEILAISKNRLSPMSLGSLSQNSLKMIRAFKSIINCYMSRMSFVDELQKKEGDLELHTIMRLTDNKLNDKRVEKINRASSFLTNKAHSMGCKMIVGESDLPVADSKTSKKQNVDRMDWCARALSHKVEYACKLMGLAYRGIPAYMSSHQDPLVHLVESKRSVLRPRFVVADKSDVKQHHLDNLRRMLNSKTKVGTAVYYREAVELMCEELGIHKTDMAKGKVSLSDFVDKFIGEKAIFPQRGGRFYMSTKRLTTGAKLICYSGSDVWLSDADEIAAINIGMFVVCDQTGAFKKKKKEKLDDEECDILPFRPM

T2: Cas12i3 R565G (Unidentified, R565G)
T2 chain: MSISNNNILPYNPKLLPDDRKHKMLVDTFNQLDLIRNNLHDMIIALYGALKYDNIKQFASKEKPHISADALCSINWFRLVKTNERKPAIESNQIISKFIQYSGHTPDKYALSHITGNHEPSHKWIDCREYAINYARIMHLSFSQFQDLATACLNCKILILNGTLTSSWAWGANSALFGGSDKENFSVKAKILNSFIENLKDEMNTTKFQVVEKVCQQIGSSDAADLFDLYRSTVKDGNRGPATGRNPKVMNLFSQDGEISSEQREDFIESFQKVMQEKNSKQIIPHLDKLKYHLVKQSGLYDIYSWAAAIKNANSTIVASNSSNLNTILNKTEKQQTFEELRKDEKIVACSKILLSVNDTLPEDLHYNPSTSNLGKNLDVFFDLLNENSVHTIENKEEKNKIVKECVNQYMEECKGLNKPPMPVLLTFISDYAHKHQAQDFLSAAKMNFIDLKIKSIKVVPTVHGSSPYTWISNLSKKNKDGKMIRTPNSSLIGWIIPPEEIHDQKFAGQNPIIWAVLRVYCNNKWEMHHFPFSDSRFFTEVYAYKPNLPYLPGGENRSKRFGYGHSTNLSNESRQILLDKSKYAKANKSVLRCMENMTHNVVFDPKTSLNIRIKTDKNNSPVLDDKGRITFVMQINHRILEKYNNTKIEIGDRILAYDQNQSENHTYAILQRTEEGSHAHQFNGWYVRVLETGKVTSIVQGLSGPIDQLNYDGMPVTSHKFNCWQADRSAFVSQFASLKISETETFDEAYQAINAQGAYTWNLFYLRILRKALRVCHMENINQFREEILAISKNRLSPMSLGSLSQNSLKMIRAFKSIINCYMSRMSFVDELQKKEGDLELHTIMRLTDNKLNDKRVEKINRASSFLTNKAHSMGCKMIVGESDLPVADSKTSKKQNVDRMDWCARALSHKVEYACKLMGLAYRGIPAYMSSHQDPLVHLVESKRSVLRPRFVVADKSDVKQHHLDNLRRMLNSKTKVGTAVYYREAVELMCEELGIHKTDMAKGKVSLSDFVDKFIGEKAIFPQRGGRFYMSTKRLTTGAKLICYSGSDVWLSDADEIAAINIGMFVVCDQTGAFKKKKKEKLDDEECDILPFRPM


Experiments:
[1] = molecular target: T1, Cas12i3 K583R; assay: cell_activity; fold change in % indels, HEK293T; PAM not stated in example
In short: (§1)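 HEK293T cells lipofected with Lipofectamine 2000 (crRNA omitted in negative controls). Harvested 72 h post-transfection and lysed in QuickExtract. Target loci amplified by two-round PCR and sequenced on NextSeq (150 cycles) to quantify % indels.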

[2] = molecular target: T2, Cas12i3 R565G; assay: as above
In short: as §1

Binder | binding signal [1] | binding signal [2]
EMX1_T5 crRNA ; EMX1_T5 target (ssRNA ; dsDNA) RNA: AUAGUGUGUCCUUAGUUGACAUUAUUAUUCCCAUAGGGAAGG DNA 1: TATTATTCCCATAGGGAAGG DNA 2: CCTTCCCTATGGGAATAATA | 1.3 fold of wild-type | 1.21 fold of wild-type
AAVS1_T3 crRNA ; AAVS1_T3 target (ssRNA ; dsDNA) RNA: AUAGUGUGUCCUUAGUUGACAUGUGAGAAUGGUGCGUCCUAG DNA 1: GTGAGAATGGTGCGTCCTAG DNA 2: CTAGGACGCACCATTCTCAC | 1.81 fold of wild-type | 1.86 fold of wild-type
VEGFA_T2 crRNA ; VEGFA_T2 target (ssRNA ; dsDNA) RNA: AUAGUGUGUCCUUAGUUGACAUAAUCCUCCACCAGUCAUGGU DNA 1: AATCCTCCACCAGTCATGGT DNA 2: ACCATGACTGGTGGAGGATT | 1.74 fold of wild-type | 0.73 fold of wild-type
